Experiment [1] has as its target T1, human TNFR2 (extracellular domain) (human, UniProt P20333 23-257).
T1 construct: also called hTNFR2; human tumor necrosis factor receptor 2
T1 sequence: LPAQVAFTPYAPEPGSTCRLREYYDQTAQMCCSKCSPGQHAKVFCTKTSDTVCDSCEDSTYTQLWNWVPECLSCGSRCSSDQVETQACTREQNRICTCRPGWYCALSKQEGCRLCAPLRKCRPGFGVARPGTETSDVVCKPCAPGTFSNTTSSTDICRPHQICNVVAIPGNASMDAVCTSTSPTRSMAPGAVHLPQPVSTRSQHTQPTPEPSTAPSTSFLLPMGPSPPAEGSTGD
In words: SPR (Carterra LSA), V-body coupled to HC200M chip, TNFR2 extracellular domain in solution, 8 concentrations from 200 nM. As for the experimental part: (§1) Binding affinities of the V-bodies to their respective target was determined by surface plasmon resonance (SPR) using a Caterra LSA instrument. Affinity purified V-bodies were covalently crosslinked onto an LSA HC200M chip using EDC/Sulfo NHS. The interaction with human, cynomolgus, and mouse TNFR2 (extracellular domain) (V-body coupling concentration: human, […]; cynomolgus/mouse, 4 μM) was measured under physiological conditions (Running Buffer: HBST-50 mM HEPES pH 7.4, 150 mM NaCl, 0.1% (w/v) BSA, 0.05% (v/v) Tween20, 25° C.) using eight different antigen concentrations (3-fold serial dilutions, start at 200 nM). Resulting sensorgrams (FIGS. 9A-9F) were analyzed and equilibrium-binding affinities (KDs) were calculated using Carterra's data analysis software.

Experiment [2] concerns the target T2, mouse TNFR2 (extracellular domain) (mouse, UniProt P25119 23-258).
T2 construct: also called mTNFR2
T2 sequence: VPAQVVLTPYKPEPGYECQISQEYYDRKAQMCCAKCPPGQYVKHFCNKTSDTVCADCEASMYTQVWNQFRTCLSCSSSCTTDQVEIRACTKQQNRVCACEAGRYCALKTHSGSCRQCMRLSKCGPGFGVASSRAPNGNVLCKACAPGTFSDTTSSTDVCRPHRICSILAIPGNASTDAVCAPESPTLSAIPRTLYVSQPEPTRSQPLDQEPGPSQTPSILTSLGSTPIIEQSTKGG
In words: SPR (Carterra LSA), V-body coupled to HC200M chip, TNFR2 extracellular domain in solution. As for the experimental part:
as §1

B1: ODY-33D4 (VHH)
VHH: EVQLVESGGGLVQAGGSLRLSCAASGRTFSDYGMGWFRQAPGKDSEFVAAINWSNGRTNYADSVKGRFTISRDNAKNTGYLEMNSLKVEDTAVYYCAATPSGKAYSYWGQGTQVTVSS
As for B1, the binding result in experiment [1] was “binds”; in experiment [2], “no binding (tested: 200 nM (highest antigen concentration))”.

B2: ODY-31D6 (VHH)
VHH: EVQLVESGGGLVQAGGSLRLSCAASGSIVSTNGMGWHRQVPGKGRELVAGIRSDGFTNYADSVKGRFTISSDNVKNTVYLQMNSLKAEDSGVYFCYYQALSSPNYGQTFWGQGTQVTVSS
As to B2, the binding result in experiment [1] is “binds”; in experiment [2], “no binding (tested: 200 nM (highest antigen concentration))”.

B3: ODY-31G3 (VHH)
VHH: EVQLVESGGGLVQAGGSLRVSCAASGSIFRADAMGWHRQVPGKPREFVAGIRSDGFTNYAEAVKGRFTISWDTVKNTVYLQMNSLKPEDTAVYTCYYQSLSSPNYGQVFWGQGTQVTVSS
Consider B3, for which the values for the binding result in experiment [1] and in experiment [2] were “binds” and “no binding (tested: 200 nM (highest antigen concentration))”, respectively.

B4: ODY-37C7 (VHH)
VHH: EVQLVESGGGLVQPGGSLRLSCAASGFTFDDIAMTWVRQAPGKGLEWVSSIYSYGPNTYYADSVKGRFTISTDSAKNTLYLQMNSLKPEDTAVYYCAADSDLSTVVVGPHDYWGQGTQVTVSS
Consider B4, for which the binding result in experiment [1] was “binds”; in experiment [2] it was “no binding (tested: 200 nM (highest antigen concentration))”.

B5: ODY-35A10 (VHH)
VHH: EVQLVESGGGLVEAGGSLRLSCAASGRTFGSYTMGWFRQAPGREQEFLASIRRTGGSTSYADSVKGRFTISRDNAKKAVYLQMNSLKPEDTAVYYCAAAPTGRAFTYWGQGTQVTVSS
Consider B5, for which the figures for the binding result in experiment [1] and in experiment [2] were “binds” and “no binding (tested: 200 nM (highest antigen concentration))”, respectively.

The values above are taken from US20260217845A1 (ODYSSEY THERAPEUTICS, published 2026).
